Patent publication US20160115212A1

Target: HLA class II molecules of healthy donors carrying different HLA DR alleles
Assay: cell-based or functional assay

- IFNγ producing CD4-positive T-cells, donor 1, after an additional round of stimulation: 0.09 to 0.13%
- IFNγ producing CD4-positive T-cells, donor 1, after the third stimulation: 0.05 to 0.1%
- maximal frequency of IFNγ producing CD4^+T-cells, donor 2: 0.05%
- maximal frequency of IFNγ producing CD4^+T-cells, donor 3: 0.07%
Binder: HSKIIIIKKGHAK [IGFBP3 169-181]
